The target of this experiment is cbx3_mouse Cbx3 (UniProt P23198).
Chain of cbx3_mouse Cbx3 (P23198 whole entry): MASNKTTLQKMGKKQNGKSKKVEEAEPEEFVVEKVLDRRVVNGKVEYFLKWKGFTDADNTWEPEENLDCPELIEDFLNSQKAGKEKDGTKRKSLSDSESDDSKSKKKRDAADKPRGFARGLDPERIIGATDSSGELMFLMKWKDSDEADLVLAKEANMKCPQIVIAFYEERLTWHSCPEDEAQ

With “Voltage-dependent L-type calcium channel subunit beta-4 (Rattus norvegicus (Rat)) (from UniProt D4A055) P220A”, the “effect of a mutation on the interaction” value was “disrupting interaction strength”.
As for “Voltage-dependent L-type calcium channel subunit beta-4 (Rattus norvegicus (Rat)) (from UniProt D4A055) V222A”, the entry is “disrupting interaction”.

These data come from IntAct's records for PubMed 22892567.
